# US20230312684A1 (PINETREE THERAPEUTICS, published 2023)
# How the values were obtained:
# [1] = target: RSV-F (amino acids 1-529), (Extracellular Domain) protein (His tag), ABIN2006856 (respiratory syncytial virus) (UniProt P03420); test: ELISA, RSV F coated, anti-human IgG-HRP
# [2] = target: SARS-CoV-2 (antigen of the ELISA of Example 17; protein not specified) (SARS-CoV-2); test: ELISA by the method of Example 15, SARS-CoV-2 antigen
Substance,EC50 [1] [nM],EC50 [2] [nM]
"SEQ ID NO: 204, b1b2-Fc-ACE2 (NRP1, K358E, K373E, R513E, K514E, K516E) (Fc fusion)",91.5,–
"SEQ ID NO: 139, b1b2-b1b2-Fc (NRP1, E319A, double b1b2) (Fc fusion)",–,81.7
"SEQ ID NO: 128, b1b2-Fc (NRP1, K358E, K373E, R513E, K514E, K516E) (Fc fusion)",42.5,–
